The text below walks through data of patent US20140274782A1, “AFFINITY REAGENTS AND METHODS FOR DETECTION, PURIFICATION, AND PROTEOMIC ANALYSIS OF METHYLATED PROTEINS” (The Board of Trustees of the Leland Stanford Junior …, priority 2013, published 2014).

One experiment has as its target T1, G9a and GLP (Homo sapiens, UniProt Q96KQ7+Q9H9B1).
T1 sequence (Q96KQ7 2-1210 limits assumed): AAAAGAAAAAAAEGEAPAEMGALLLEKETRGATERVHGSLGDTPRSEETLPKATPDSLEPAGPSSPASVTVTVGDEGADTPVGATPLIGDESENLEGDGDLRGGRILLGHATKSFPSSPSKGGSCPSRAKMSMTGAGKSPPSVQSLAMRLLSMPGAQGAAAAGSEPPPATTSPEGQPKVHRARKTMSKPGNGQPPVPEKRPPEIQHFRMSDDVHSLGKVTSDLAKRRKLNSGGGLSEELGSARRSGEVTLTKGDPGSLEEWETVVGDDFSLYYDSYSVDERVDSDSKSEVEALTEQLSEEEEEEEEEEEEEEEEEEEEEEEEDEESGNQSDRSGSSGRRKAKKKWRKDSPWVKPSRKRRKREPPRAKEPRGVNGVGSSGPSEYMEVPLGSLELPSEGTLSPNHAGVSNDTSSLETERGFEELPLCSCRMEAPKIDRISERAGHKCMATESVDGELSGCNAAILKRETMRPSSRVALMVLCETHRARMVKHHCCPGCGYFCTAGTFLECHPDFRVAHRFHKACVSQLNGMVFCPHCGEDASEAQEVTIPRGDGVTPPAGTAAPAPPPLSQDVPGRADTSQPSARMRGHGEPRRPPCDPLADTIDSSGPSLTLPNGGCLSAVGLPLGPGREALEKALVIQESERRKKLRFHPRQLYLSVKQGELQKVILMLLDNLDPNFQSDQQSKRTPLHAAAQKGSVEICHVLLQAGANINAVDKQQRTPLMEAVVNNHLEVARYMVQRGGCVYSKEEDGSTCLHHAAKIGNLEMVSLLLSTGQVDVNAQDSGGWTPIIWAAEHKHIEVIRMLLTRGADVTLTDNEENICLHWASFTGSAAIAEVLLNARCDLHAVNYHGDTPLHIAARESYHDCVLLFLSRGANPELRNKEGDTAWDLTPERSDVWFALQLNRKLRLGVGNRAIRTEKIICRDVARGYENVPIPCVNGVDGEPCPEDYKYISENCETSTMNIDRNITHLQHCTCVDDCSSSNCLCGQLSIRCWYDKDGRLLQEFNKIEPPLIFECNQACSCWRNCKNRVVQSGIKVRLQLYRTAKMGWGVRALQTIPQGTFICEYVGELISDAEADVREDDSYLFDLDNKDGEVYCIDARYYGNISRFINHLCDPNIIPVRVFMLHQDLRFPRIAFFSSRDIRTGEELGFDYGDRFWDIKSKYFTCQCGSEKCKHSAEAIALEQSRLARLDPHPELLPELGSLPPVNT
T1 sequence (Q9H9B1 2-1298 limits assumed): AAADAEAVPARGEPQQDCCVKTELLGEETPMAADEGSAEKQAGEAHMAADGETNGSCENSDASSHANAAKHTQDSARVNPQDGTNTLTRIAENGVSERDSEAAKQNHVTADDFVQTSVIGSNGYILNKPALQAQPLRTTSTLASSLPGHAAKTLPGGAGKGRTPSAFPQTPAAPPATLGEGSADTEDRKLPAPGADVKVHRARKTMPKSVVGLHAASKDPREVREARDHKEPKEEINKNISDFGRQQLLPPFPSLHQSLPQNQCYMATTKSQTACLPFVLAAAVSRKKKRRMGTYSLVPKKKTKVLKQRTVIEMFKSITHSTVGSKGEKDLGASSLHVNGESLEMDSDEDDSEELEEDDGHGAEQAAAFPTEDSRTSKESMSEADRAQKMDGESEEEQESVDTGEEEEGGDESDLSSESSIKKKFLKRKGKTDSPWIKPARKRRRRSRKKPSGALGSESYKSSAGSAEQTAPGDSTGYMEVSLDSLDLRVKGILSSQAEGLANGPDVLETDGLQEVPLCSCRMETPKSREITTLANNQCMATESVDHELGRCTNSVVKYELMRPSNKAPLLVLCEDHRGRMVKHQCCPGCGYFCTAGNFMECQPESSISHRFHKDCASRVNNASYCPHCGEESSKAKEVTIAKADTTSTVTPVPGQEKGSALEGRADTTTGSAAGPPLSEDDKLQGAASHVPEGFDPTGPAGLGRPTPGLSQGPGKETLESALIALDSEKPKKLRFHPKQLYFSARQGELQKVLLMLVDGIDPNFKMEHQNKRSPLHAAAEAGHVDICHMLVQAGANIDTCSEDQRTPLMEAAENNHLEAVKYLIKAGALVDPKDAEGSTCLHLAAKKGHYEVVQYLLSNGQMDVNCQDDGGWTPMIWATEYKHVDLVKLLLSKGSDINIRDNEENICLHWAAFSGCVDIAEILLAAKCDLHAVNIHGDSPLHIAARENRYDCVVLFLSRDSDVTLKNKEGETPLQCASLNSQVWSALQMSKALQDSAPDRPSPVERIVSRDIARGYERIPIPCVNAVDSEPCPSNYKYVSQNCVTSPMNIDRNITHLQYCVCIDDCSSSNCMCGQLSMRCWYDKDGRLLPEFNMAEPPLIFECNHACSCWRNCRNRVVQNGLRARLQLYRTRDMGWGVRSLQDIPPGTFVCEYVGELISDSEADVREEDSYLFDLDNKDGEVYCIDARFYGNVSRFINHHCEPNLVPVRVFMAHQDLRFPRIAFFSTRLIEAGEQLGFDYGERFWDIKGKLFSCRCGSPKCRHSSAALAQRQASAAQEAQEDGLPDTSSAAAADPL
In words: Triple SILAC pull-down after UNC0638 treatment of 293T cells, DMSO/UNC0638 ratio of protein captured by 3×MBT.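 As to all read-outs here: mass spectrometry (Q-Exactive) SILAC quantitation, DMSO/UNC0638 ratio computed after subtracting 3×MBTD355N mutant pull-down background, only proteins with at least twofold 3×MBT over mutant signal considered.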 The format is cell-based. Further details: endogenous in cells; host or cells: HEK 293T. The settings on record: for Relative to UNC0638 UNC Heavy / Relative to UNC0638 UNC Light: SILAC ratio DMSO/UNC0638 of protein pulled down with 3xMBT; for Relative to UNC0638 UNC Heavy: UNC0638 in heavy SILAC media; for Relative to UNC0638 UNC Light: UNC0638 in light SILAC media; for Relative to UNC0638 Average: average of UNC Light and UNC Heavy experiments.

The next experiment has as its system 3×MBT domain of L3MBTL1. The experiment in a line: Triple SILAC pull-down, 3xMBT/3xMBTD355N ratio (cytoplasmic, nuclear and chromatin fractions of 293T cells).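 As to all read-outs here: proteins quantified with MaxQuant, requiring at least two unique peptides and quantification in both label directions, normalized to the mean of proteins from a digested loading control.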 It counts as binding, human. The settings on record: SILAC ratio, pull-down 3xMBT vs 3xMBTD355N; for 3xMBT/D355N UNC Heavy: experiment with UNC0638 in heavy SILAC media; for 3xMBT/D355N UNC Light: experiment with UNC0638 in light SILAC media.

B1: PRPF19 (protein, UniProt Q9UMS4 2-504, looked up)
Pre-mRNA-processing factor 19: SLICSISNEVPEHPCVSPVSNHVYERRLIEKYIAENGTDPINNQPLSEEQLIDIKVAHPIRPKPPSATSIPAILKALQDEWDAVMLHSFTLRQQLQTTRQELSHALYQHDAACRVIARLTKEVTAAREALATLKPQAGLIVPQAVPSSQPSVVGAGEPMDLGELVGMTPEIIQKLQDKATVLTTERKKRGKTVPEELVKPEELSKYRQVASHVGLHSASIPGILALDLCPSDTNKILTGGADKNVVVFDKSSEQILATLKGHTKKVTSVVFHPSQDLVFSASPDATIRIWSVPNASCVQVVRAHESAVTGLSLHATGDYLLSSSDDQYWAFSDIQTGRVLTKVTDETSGCSLTCAQFHPDGLIFGTGTMDSQIKIWDLKERTNVANFPGHSGPITSIAFSENGYYLATAADDSSVKLWDLRKLKNFKTLQLDNNFEVKSLIFDQSGTYLALGGTDVQIYICKQWTEILHFTEHSGLTTGVAFGHHAKFIASTGMDRSLKFYSL
As to B1, in the experiment with G9a and GLP, the “Relative to UNC0638 UNC Heavy” value is recorded as 0.39 log base 2, the “Relative to UNC0638 UNC Light” value is −0.15 log base 2 and the “Relative to UNC0638 Average” value is reported as 0.12 log base 2. For the same molecule, in the experiment on 3×MBT domain of L3MBTL1, the “3xMBT/D355N UNC Heavy” value is recorded as 2.05 log base 2 and the “3xMBT/D355N UNC Light” value stood at 1.97 log base 2.

B2: CAPRIN1 (protein, UniProt Q14444 2-709, looked up)
Caprin-1: PSATSHSGSGSKSSGPPPPSGSSGSEAAAGAGAAAPASQHPATGTGAVQTEAMKQILGVIDKKLRNLEKKKGKLDDYQERMNKGERLNQDQLDAVSKYQEVTNNLEFAKELQRSFMALSQDIQKTIKKTARREQLMREEAEQKRLKTVLELQYVLDKLGDDEVRTDLKQGLNGVPILSEEELSLLDEFYKLVDPERDMSLRLNEQYEHASIHLWDLLEGKEKPVCGTTYKVLKEIVERVFQSNYFDSTHNHQNGLCEEEEAASAPAVEDQVPEAEPEPAEEYTEQSEVESTEYVNRQFMAETQFTSGEKEQVDEWTVETVEVVNSLQQQPQAASPSVPEPHSLTPVAQADPLVRRQRVQDLMAQMQGPYNFIQDSMLDFENQTLDPAIVSAQPMNPTQNMDMPQLVCPPVHSESRLAQPNQVPVQPEATQVPLVSSTSEGYTASQPLYQPSHATEQRPQKEPIDQIQATISLNTDQTTASSSLPAASQPQVFQAGTSKPLHSSGINVNAAPFQSMQTVFNMNAPVPPVNEPETLKQQNQYQASYNQSFSSQPHQVEQTELQQEQLQTVVGTYHGSPDQSHQVTGNHQQPPQQNTGFPRSNQPYYNSRGVSRGGSRGARGLMNGYRGPANGFRGGYDGYRPSFSNTPNSGYTQSQFSAPRDYSGYQRDGYQQNFKRGSGQSGPRGAPRGRGGPPRPNRGMPQMNTQQVN
Take B2: in the experiment with G9a and GLP, the “Relative to UNC0638 UNC Heavy” value was −1.08 log base 2, the “Relative to UNC0638 UNC Light” value amounted to 1.34 log base 2 and the “Relative to UNC0638 Average” value worked out at 0.13 log base 2. Moreover, in the experiment on 3×MBT domain of L3MBTL1, the “3xMBT/D355N UNC Heavy” value is given as 2.45 log base 2 and the “3xMBT/D355N UNC Light” value is given as 4.36 log base 2.

B3: SRBD1 (protein, UniProt Q8N5C6 1-995, looked up)
S1 RNA-binding …: MSSLPRRAKVQVQDVVLKDEFSSFSELSSASEEDDKEDSAWEPQKKVPRSRKQPPPKESKPKRMPRVKKNAPQISDGSEVVVVKEELNSSVAIADTALEDRKNKLDTVQTLKTAKTKQKCAAQPHTVRRTKKLKVEEETSKASNLEGESNSSETPSTSTVWGGTCKKEENDDDFTFGQSALKKIKTETYPQGQPVKFPANANSTKEEVEMNWDMVQVLSERTNIEPWVCANIIRLFNDDNTIPFIIRYRKELINNLDADSLREVQQTLEELRAVAKKVHSTIQKIKKEGKMSECLLKAMLNCKTFEELEHVSAPYKTGSKGTKAQRARQLGLEGAARALLEKPGELSLLSYIRPDVKGLSTLQDIEIGVQHILADMIAKDKDTLDFIRNLCQKRHVCIQSSLAKVSSKKVNEKDVDKFLLYQHFSCNIRNIHHHQILAINRGENLKVLTVKVNISDGVKDEFCRWCIQNRWRPRSFARPELMKILYNSLNDSFKRLIYPLLCREFRAKLTSDAEKESVMMFGRNLRQLLLTSPVPGRTLMGVDPGYKHGCKLAIISPTSQILHTDVVYLHCGQGFREAEKIKTLLLNFNCSTVVIGNGTACRETEAYFADLIMKNYFAPLDVVYCIVSEAGASIYSVSPEANKEMPGLDPNLRSAVSIARRVQDPLAELVKIEPKHIGVGMYQHDVSQTLLKATLDSVVEECVSFVGVDINICSEVLLRHIAGLNANRAKNIIEWREKNGPFINREQLKKVKGLGPKSFQQCAGFIRINQDYIRTFCSQQTETSGQIQGVAVTSSADVEVTNEKQGKKKSKTAVNVLLKPNPLDQTCIHPESYDIAMRFLSSIGGTLYEVGKPEMQQKINSFLEKEGMEKIAERLQTTVHTLQVIIDGLSQPESFDFRTDFDKPDFKRSIVCLEDLQIGTVLTGKVENATLFGIFVDIGVGKSGLIPIRNVTEAKLSKTKKRRSLGLGPGERVEVQVLNIDIPRSRITLDLIRVL
Consider B3, for which, in the experiment with G9a and GLP, the “Relative to UNC0638 UNC Heavy” value is −0.13 log base 2, the “Relative to UNC0638 UNC Light” value is recorded as 0.37 log base 2 and the “Relative to UNC0638 Average” value came to 0.12 log base 2. In the experiment with 3×MBT domain of L3MBTL1, the “3xMBT/D355N UNC Heavy” value is 1.02 log base 2 and the “3xMBT/D355N UNC Light” value is recorded as 1.29 log base 2.

B4: LRWD1 (protein, UniProt Q9UFC0 1-647, looked up)
Leucine-rich repeat and WD …: MGPLSARLLMQRGRPKSDRLGKIRSLDLSGLELLSEHLDPKLLCRLTQLQELDLSNNHLETLPDNLGLSHLRVLRCANNQLGDVTALCQFPKLEELSLEGNPFLTVNDNLKVSFLLPTLRKVNGKDASSTYSQVENLNRELTSRVTAHWEKFMATLGPEEEAEKAQADFVKSAVRDVRYGPESLSEFTQWRVRMISEELVAASRTQVQKANSPEKPPEAGAAHKPRARLAALKRPDDVPLSLSPSKRACASPSAQVEGSPVAGSDGSQPAVKLEPLHFLQCHSKNNSPQDLETQLWACAFEPAWEEGATSQTVATCGGEAVCVIDCQTGIVLHKYKAPGEEFFSVAWTALMVVTQAGHKKRWSVLAAAGLRGLVRLLHVRAGFCCGVIRAHKKAIATLCFSPAHETHLFTASYDKRIILWDIGVPNQDYEFQASQLLTLDTTSIPLRLCPVASCPDARLLAGCEGGCCCWDVRLDQPQKRRVCEVEFVFSEGSEASGRRVDGLAFVNEDIVASKGSGLGTICLWSWRQTWGGRGSQSTVAVVVLARLQWSSTELAYFSLSACPDKGIVLCGDEEGNVWLYDVSNILKQPPLLPAALQAPTQILKWPQPWALGQVVTKTMVNTVVANASFTYLTALTDSNIVAIWGRM
As to B4, in the experiment with G9a and GLP, the “Relative to UNC0638 UNC Heavy” value is on record as 0.01 log base 2, the “Relative to UNC0638 UNC Light” value was determined as 0.25 log base 2 and the “Relative to UNC0638 Average” value stood at 0.13 log base 2. Also, in the experiment on 3×MBT domain of L3MBTL1, the “3xMBT/D355N UNC Heavy” value stood at 2.59 log base 2 and the “3xMBT/D355N UNC Light” value stood at 2.64 log base 2.
